One block for each substance: values may come before it.
Legend:
[1] = molecular target: ChiAVD–G42A (chicken | not stated) (UniProt P56734); test: dynamic light scattering; 50 mM NaH2PO4/Na2HPO4, 100 mM NaCl, pH 7 at 25°C; volume distribution
[2] = molecular target: Chimeric avidin ChiAVD(I117Y) (chicken | not stated) (UniProt P02701); test: solution NMR structure; biotin-bound ChiAVD, 13C/15N-labelled, 58°C, 800 MHz; intersubunit NOE peaks identified by inspection of avidin crystal structures and manually assigned; RDCs in bicelles at 40°C
[3] = molecular target: Chimeric avidin ChiAVD(I117Y) (chicken | not stated) (UniProt P02701); test: dynamic light scattering; 50 mM NaH2PO4/Na2HPO4, 100 mM NaCl, pH 7 at 25°C; volume distribution
[4] = molecular target: ChiAVD–G42F (chicken | not stated) (UniProt P56734); test: as above

- stoichiometry N [1]: 4
Substance: ChiAVD–G42A (from UniProt P56734 62-82; P02701 85-152)

- stoichiometry N [3]: 4
Substance: Chimeric avidin ChiAVD(I117Y) (from UniProt P02701 85-152)
- stoichiometry N [2]: 4

- stoichiometry N [4]: 4
Substance: ChiAVD–G42F (from UniProt P56734 62-82; P02701 85-152)

Reference: article PMC4069078
